Each block holds one molecule with its values, some of them ahead of it.
Experiments:
[1] = target: T1, ectoine synthase (Pl)EctC (Paenibacillus lautus, UniProt A0A1R1AV52); assay: X-ray crystal structure ([…] Å); assay type: binding
T1 construct: full-length (130 amino acids), C-terminal Strep-tag II

[2] = target: Paenibacillus lautus ectoine synthase fused at its C-terminus to a Strep-tag II affinity peptide [(Pl)EctC-Strep-tag II] (Paenibacillus lautus Y4.12MC10); assay: SEC-MALS; HPLC-MALS; 200 µl of purified (Pl)EctC protein (2 mg ml^-1) loaded onto a Bio SEC-5 HPLC column; measured mass 32.2 kDa against 15.87 kDa calculated for the monomer
[3] = substrate: CC(=O)NCC[C@H](N)C(=O)O; assay: purified protein; assay type: binding, Paenibacillus lautus; conditions: Fe2+ active site in the cupin barrel; Trp-21, Arg-25, Asn-38, Thr-40, Tyr-52, Glu-57; acetamide oxygen coordinates the iron

Molecule: CC1=N[C@H](C(=O)O)CCN1 [ectoine, (S)−2-methyl-1,4,5,6-tetrahydropyrimidine-4-carboxylic acid]
X-ray crystal structure (2.5 Å) [1]: The ectoine molecule is coordinated within the active site of the (Pl)EctC enzyme through five direct interactions

stoichiometry N [2]: 2
Molecule: Paenibacillus lautus ectoine synthase fused at its C-terminus to a Strep-tag II affinity peptide [(Pl)EctC-Strep-tag II] (enzyme)

B1: ectoine synthase (Pl)EctC (Paenibacillus lautus) (protein)
chain: MIVKHLEEIVDTKDDIDTKTWNSRRLLLTKDGMGFSLNDTLIKAGTETLIWYKNHVEAVYCIEGEGEIEVIGGETYPISPGMMYALDGHEKHYLRARSQMRMVCVFNPPLTGAEVHDEEGTYPLLAPISD
notes: full-length (130 amino acids), C-terminal Strep-tag II
Km [3]: 7.8 mM
